Source: patent US20210171593A1

What was measured:
[1] = biological target: CD47 on the surface of tumor cells (Raji cells, Jurkat cells, A549 cells) (human) (UniProt Q08722); assay: flow cytometry on Raji cells
[2] = biological target: CD47 on the surface of tumor cells (Raji cells, Jurkat cells, A549 cells) (human) (UniProt Q08722); assay: flow cytometry on A549 cells
[3] = biological target: Biotin-Fc-CD47 (Homo sapiens (Human)) (UniProt Q08722); assay: competition ELISA: blocks Biotin-Fc-CD47 binding to coated SIRPα-His
[4] = biological target: CD47 on the surface of tumor cells (Raji cells, Jurkat cells, A549 cells) (human) (UniProt Q08722); assay: flow cytometry on Jurkat cells
[5] = biological target: CD47-FITC (Homo sapiens (Human)) (UniProt Q08722); assay: flow cytometry of the wild domain control with the same gate as the library panel above it (CD47-FITC in the text, x axis printed APC-A), third panel, under the 12.5% panel
[6] = biological target: CD47-FITC (Homo sapiens (Human)) (UniProt Q08722); assay: flow cytometry of the wild domain control with the same gate as the library panel above it (CD47-FITC in the text, x axis printed APC-A), first panel, under the 3% panel
[7] = biological target: CD47-FITC (Homo sapiens (Human)) (UniProt Q08722); assay: flow cytometry of the wild domain control with the same gate as the library panel above it (CD47-FITC in the text, x axis printed APC-A), second panel, under the 4.9% panel

TTI-621 (Fc fusion)
EC50 [1]: 0.0404 µg/mL | maximum fluorescence intensity [1]: 600 | EC50 [2]: 1 µg/mL | maximum fluorescence intensity [2]: 60 | IC50 [3]: 494 µg/mL | EC50 [4]: 0.0539 µg/mL | maximum fluorescence intensity [4]: 3000

B1: Wild domain control (receptor, part only; not given: display vector transmembrane region, not shown: another chain or arm of the molecule; large carriers; small tags and cut ends)
chain: ELQVIQPDKSVLVAAGETATLRCTATSLIPVGPIQWFRGAGPGRELIYNQKEGHFPRVTTVSDLTKRNNMDFSIRIGNITPADAGTYYCVKFRKGSPDDVEFKSGAGTELSVRAKPS
modifications: displayed on the CHO cell surface through the pTM transmembrane region (no letters given); the pTM signal peptide is left off as cleaved
percent of cells in gate P2 [5]: 0% | percent of cells in gate P2 [6]: 1.3% | percent of cells in gate P2 [7]: 0%
